T1: RTL340 (DR2/MBP-85-99), biotinylated version (human, DRA*01:01/DRB1*15:01, biotin on the Bir-A tag)
T1 chain 1: ENPVVHFFKNIVTPR
T1 chain 2: not shown
T1 chain 3: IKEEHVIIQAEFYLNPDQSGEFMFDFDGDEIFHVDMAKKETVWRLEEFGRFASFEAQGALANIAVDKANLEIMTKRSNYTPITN


Experiments:
[1] = molecular target: T1, RTL340 (DR2/MBP-85-99), biotinylated …; assay: ELISA
[2] = molecular target: RTL342m (α1β1 domains of DR2 linked to mouse MOG-35-55 peptide) (human HLA-DR2 (DRA*01:01/DRB1*15:01) …, UniProt Q61885;IMGT); assay: ELISA

Row | Binder | binding result [1] | fold reduction in ELISA binding to RTL342m compared to RTL1000 [2] [fold]
1 | Fab 2C3 (Fab, V domains shown) VH: QVQLVQSGGGVVQPGRSLRLSCAASGFTFSSYAMHWVRQAPGKGLEWVAVISYDGSNKYYADSVKGRFTISRDNSKNTLYLQMNSLRAEDTAVYYCARDRSFWSGYYIINYYYYGMDVWGQGTTVTVSS VL: DVVMTQSPLSLPVTPGEPASISCRSSQSLLHSDGNNYLDWYLQKPGQSPQLLIYLGSNRASGVPDRFSGSGSGTDFTLKISRVEPEDVGVYYCMQALHIPLTFGQGTRLEIK | no binding | 
2 | Fab 2E4 (Fab, V domains shown) VH: EVQLVESGAEVKKPGASVKVSCKASGYTFTSYYMHWVRQAPGQGLEWMGIINPSGGSTSYAQKFQGRVTMTRDTSTSTVYMELSSLRSEDTAVYYCAREGDNYYGDAFDIWGQGTMVTVSS VL: EIVLTQSPATLSLSPGERATLSCRASQSVSSYLAWYQQKPGQAPRLLIYDASNRATGIPARFSGSGSGTDFTLTISSLEPEDFAVYYCQQRSNWPPSYTFGQGTKLEIK |  | 2

More lines, now with the values ahead:

Row | binding result [1] | fold reduction in ELISA binding to RTL342m compared to RTL1000 [2] [fold] | Binder
3 |  | 5 | Fab 3A3 (Fab, V domains shown) VH: QVQLQESGGGLVKPGGSLRLSCAASGFTFSSYSMNWVRQAPGKGLEWVSSISSSSSYIYYADSVKGRFTISRDNAKNSLYLQMNSLRAEDTAVYYCARVRGHRYYYDSSGYYSSDYYYYYGMDVWGQGTTVTVSS VL: DIQLTQSPSSVSASVGDRVTITCRASQVISSWLAWYQQKPGKAPKLLISTASSLQSGVPPRFSGSGSGTDFTLTITSLQPEDFATYYCQQANSFPLTFGQGTKVEIK
4 |  | 5 | Fab 1F11 (Fab, V domains shown) VH: QLQLQESGPGLVKPSETLSLTCTVSGVSISSRSGHWGWVRQPPGKGLEWIGSISYSGSTYYNPSLKSRVTISVDTSKNQLSLKLSSVTAADTAVYYCARESHPAAALVGWGQGTLVTVSS VL: ETTLTQSPGTLSLSPGERATLSCRASQSIINSHLAWYQQKPGQAPRLLIYGASSRATGIPDRFSGGGSGTDFTLTITRLETEDFALYFCQQYGTSPLTFGGGTRVETK

Reference: article PMC3085348 (European journal of immunology, 2011)
